Source: PMC10537722, “Proline Dehydrogenase and Pyrroline 5 Carboxylate Dehydrogenase from Mycobacterium tuberculosis: Evidence for Substrate Channeling” (Pathogens, 2023)

Tests used:
[1] = system: CC(C)=CCC/C(C)=C/CC1=C(C)C(=O)c2ccccc2C1=O; assay: purified protein; conditions: FAD; pH 7.0; 25.0 °C
[2] = system: CC(C)=CCC1=C(C)C(=O)c2ccccc2C1=O; assay: purified protein; conditions: FAD; pH 7.0; 25.0 °C
[3] = system: CC1=C(CCC(C)C)C(=O)c2ccccc2C1=O; assay: purified protein; conditions: FAD; pH 7.0; 25.0 °C
[4] = system: COC1=C(OC)C(=O)C(CC=C(C)C)=C(C)C1=O; assay: purified protein; conditions: FAD; pH 7.0; 25.0 °C
O=C(O)[C@@H]1CCCN1 = assay: purified protein; conditions: FAD; pH 7.0; 25.0 °C
[5] = biological target: T1, proline dehydrogenase (PruB) (Mycobacterium tuberculosis, UniProt O50444); assay: […]; added FAD makes little difference to activity; format: binding
T1 construct: gene Rv1188
T1 sequence (O50444 1-329): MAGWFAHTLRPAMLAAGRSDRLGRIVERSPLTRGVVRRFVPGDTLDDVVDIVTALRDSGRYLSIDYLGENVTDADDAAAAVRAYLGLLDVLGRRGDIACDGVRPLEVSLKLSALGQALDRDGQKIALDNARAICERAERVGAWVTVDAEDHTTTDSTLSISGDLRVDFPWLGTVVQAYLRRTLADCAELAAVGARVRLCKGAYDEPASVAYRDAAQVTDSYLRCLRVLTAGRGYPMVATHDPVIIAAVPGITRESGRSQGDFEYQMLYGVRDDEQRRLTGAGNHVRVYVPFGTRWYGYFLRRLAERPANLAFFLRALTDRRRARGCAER

Molecule	Km [1]	Km [2]	Km [3]	Km [4]	kcat [4]	kcat/Km [4]	Km (O=C(O)[C@@H]1CCCN1)	kcat (O=C(O)[C@@H]1CCCN1)	kcat/Km (O=C(O)[C@@H]1CCCN1)	co-purification with the enzyme (yellow protein); added FAD makes little differen [5]
proline dehydrogenase (PruB) (Mycobacterium tuberculosis H37Rv)	12 ± 0.66 µM	23 ± 3.2 µM	46 ± 13 µM	9.7 ± 1.4 µM	2.3 s⁻¹	230000 M⁻¹ s⁻¹	2500 ± 300 µM	1.7 s⁻¹	690 M⁻¹ s⁻¹	
Cc1cc2nc3c(=O)[nH]c(=O)nc-3n(C[C@H](O)[C@H](O)[C@H](O)COP(=O)(O)OP(=O)(O)OC[C@H]3O[C@@H](n4cnc5c(N)ncnc54)[C@H](O)[C@@H]3O)c2cc1C [FAD]										the addition of FAD to the assay buffer resulted in little difference in activity, confirming the copurification
